Experimental data taken from patent US10696631B2 (priority 2016, dated 2020).
Like-named read-outs stand apart in the source and are kept apart here.

Key:
U87MG xenografts = test: MicroPET imaging and biodistribution in U87MG xenografts
Text: (§1) Female athymic nude mice (Harlan Laboratories) were housed in an animal facility under pathogen-free conditions. Tumor model was developed in 5 to 6 weeks old female athymic nude mice by injection of 5×10^6 cells into their right shoulders. The mice underwent small-animal PET studies when the tumor volume reached 300 mm^3 (14-20 days after inoculation), and received ^90Y radionuclide therapy when the tumor volume reached 150 mm^3 (10-14 days after inoculation).
(§2) Blood, muscle, bone, liver, kidneys, spleen, intestine, heart and tumor were collected and wet-weighed. […] Radioactivity was measured in a γ-counter. The results were expressed % ID/g.

U87MG tumor [1] = test: 90Y radiotherapy in U87MG tumor bearing mice; assay type: in vivo, mouse
Text: NMEB-RGD was applied to integrin αvβ3 targeted radiotherapy. […] Similar pattern was observed after the second injection.

U87MG tumor [2] = test: 18F-FDG and 18F-FLT PET imaging after 90Y radiotherapy; assay type: in vivo, mouse
HT29 tumor = assay type: in vivo, mouse; settings: HT-29 tumor xenografts, 7.4 MBq
Procedure: In order to test the specificity of ^90Y-DMEB-RGD radiotherapy to integrin αvβ3, the efficacy of 7.4 MBq ^90Y-DMEB-RGD in HT29 that expresses lower human integrin levels but has moderate expression of mouse integrin was tested (FIG. 6). […] Injection of HT29 tumor bearing mice with 7.4 MBq ^90Y-DMEB-RGD was compared in the same model to injection of saline (FIG. 18A). […] HT-29 treated and non-treated mice were sacrificed at day 26 post injection due to tumors ulcer.

U87MG tumor [3] = test: Histopathologic staining after targeted radiotherapy (CD31, Ki-67, TUNEL, H&E); assay type: in vivo, mouse
Procedure: U87MG tumor samples from Groups A-F were collected and sectioned after the animals were sacrificed. […] After being washed three times with PBS, samples were mounted with DAPI for staining of cell nuclei (Vector). Fluorescence images were acquired with an epifluorescence microscope (200×; Olympus, X81).
Immunofluorescent terminal deoxynucleotidetransferase-mediated biotin-dUTP labeling (TUNEL) analysis was done by use of a commercial available kit (Roche Applied Science). According to the manufacture's specifications, samples were fixed with 10% formalin and permeabilized by incubation with 0.1% Triton for 2 min on ice. After fixation and permeabilization, 50 μL of TUNEL reaction mixture were added on the samples. The slides were then incubated in a humidified atmosphere for 60 min at 37° C. in the dark. After rinsing with PBS and mounting with DAPI (Vector), samples were observed under an epifluorescence microscope using GFP channel.
CD31 staining to evaluate tumor vasculature, Ki-67 staining to evaluate tumor proliferation and TUNEL staining to determine the DNA damage were done for all the six groups (A-F). For groups A, E and F that had large necrotic area, staining was focused on the tumor rim where tumor cells were alive.

[4] = assay type: in vitro ADME, mouse
Text: At each time point, an aliquot was taken and loaded on iTLC plate and developed in for RadioTLC measurements.

MDA-MB-435 xenografts = settings: mouse, in vivo
Text: as §1, §2

HT29 xenografts = settings: mouse, in vivo
Text: as §1, §2

glioblastoma [5] = settings: human, in vivo
HT29 cells = test: Cellular uptake and internalization in HT29 cells; assay type: cell-based, human
Procedure: (§3) All the cells were supplemented with 10% fetal bovine serum, 100 IU/mL penicillin, and […] streptomycin. Cells were grown in humidified atmosphere containing 5% CO2 at 37° C.

glioblastoma [6] = test: PET in a patient with WHO stage IV glioblastoma; settings: GBM patient
[7] = human, in vivo
[8] = PET/CT and dosimetry calculation in healthy volunteers
U87MG cells = test system: U87MG cells
Procedure: as §3

[9] = mouse
Procedure: The red blood cells were separated from the plasma using centrifugation (3500 rpm for 5 min). […] The extracted soup was taken, filter on 0.45 μm filter and injected into an analytical HPLC using system 1.

[10] = human, intravenous administration, n = 3

Cc1cc(-c2ccc(NC(=O)CN3CCN4CCN(CC3)CC(=O)[O][64Cu][O]C(=O)C4)c(C)c2)ccc1N=Nc1ccc2c(S(=O)(=O)O)cc(S(=O)(=O)O)c(N)c2c1O [64Cu-NEB]
tumor uptake (U87MG xenografts; U87MG xenografts, 24 h p.i., PET): approximately 8 % ID/g | uptake in the tumor (U87MG xenografts; U87MG xenografts, up to 4 h p.i.): 6-7 % ID/g | order of tumor uptake among xenografts (U87MG xenografts; U87MG, HT29 and MDA-MB-435 xenografts): U87MG>HT29>MDA-MB-435 | accumulation in the blood compared with the other tracers (U87MG xenografts; all time points): highest accumulation in the blood at all time points

Cc1cc(-c2ccc(NC(=O)[C@@H](CCCCNC(=O)CCN3C(=O)CC(SCC(=O)NCCCC[C@H]4NC(=O)[C@H](Cc5ccccc5)NC(=O)[C@H](CC(=O)O)NC(=O)CNC(=O)[C@H](CCCNC(=N)N)NC4=O)C3=O)NC(=O)CN3CCN(CC(=O)O)CCN(CC(=O)O)CCN(CC(=O)O)CC3)c(C)c2)ccc1/N=N/c1ccc2c(S(=O)(=O)O)cc(S(=O)(=O)O)c(N)c2c1O (some centres unmarked) [90Y-DMEB-RGD, metal not drawn]
tumor volume (U87MG tumor [1]; 1.75 MBq, second injection): No effect on the tumor volume | tumor volume (U87MG tumor [1]; 3.7 MBq, second injection): Minor tumor shrink | survival compared with saline and 90Y-DOTA-c(RGDfK) groups (U87MG tumor [1]; 7.4, 3.7 and 1.75 MBq groups): significant differences (p<0.01) | tumor volume compared with saline group (U87MG tumor [1]; 7.4, 3.7 and 1.75 MBq groups, day 6 post treatment): significantly lower (p<0.01) | body weight loss (U87MG tumor [1]; 7.4 MBq, day 2, regained at day 4): 5% | tumor volume (U87MG tumor [1]; 7.4 MBq, first injection): reduction of volume by day 8 | tumor volume (U87MG tumor [1]; 7.4 MBq, second injection 14 days post initial treatment): tumors almost disappeared up to 30 days post initial treatment | 18F-FLT PET, tumor proliferation (U87MG tumor [2]; 5 and 12 days post initial treatment, group B 7.4 MBq): significant less 18F-FLT uptake | 18F-FDG PET, tumor metabolism (U87MG tumor [2]; 3 days post-injection): decreased metabolism | 18F-FDG PET, tumor metabolism (U87MG tumor [2]; 10 days post-treatment, group B 7.4 MBq): significant decreased metabolism | tumor growth (HT29 tumor): delay of tumor growth | cell apoptosis (TUNEL staining) (U87MG tumor [3]; group B 7.4 MBq): considerably more cell apoptosis | cell proliferation (Ki-67 staining) (U87MG tumor [3]; group B 7.4 MBq): significantly reduced cell proliferation | tumor vasculature (CD31 staining) (U87MG tumor [3]; group B 7.4 MBq): lesser than that in the other groups | Hematoxylin and eosin staining, tumor necrosis (U87MG tumor [3]; group B, two doses of 7.4 MBq): most of the tumor area in Group B was already necrotic

Cc1cc(-c2ccc(NC(=O)[C@@H](CCCCNC(=O)CCN3C(=O)CC(SCC(=O)NCCCC[C@H]4NC(=O)[C@H](Cc5ccccc5)NC(=O)[C@H](CC(=O)O)NC(=O)CNC(=O)[C@H](CCCNC(=N)N)NC4=O)C3=O)NC(=O)CN3CCN(CC(=O)O)CCN(CC(=O)O)CC3)c(C)c2)ccc1/N=N/c1ccc2c(S(=O)(=O)O)cc(S(=O)(=O)O)c(N)c2c1O (some centres unmarked) [64Cu-NMEB-RGD, metal not drawn]
tumor accumulation, % ID/g max (U87MG xenografts; U87MG xenografts, 4 and 24 h p.i.): 27-30 % ID/g | tumor uptake (max) higher than uptake of 64Cu-NOTA-c(RGDfk) (U87MG xenografts; mouse, in vivo): 15 times | tumor uptake blocked by (U87MG xenografts; mouse, in vivo): 55-65% | stability in mouse serum (de-metalation) [4]: stable in mouse serum for up to 24 h | tumor uptake compared with U87MG (MDA-MB-435 xenografts): significantly lower than U87MG at all time points | tumor uptake compared with U87MG (HT29 xenografts): significantly lower than U87MG at all time points | T(max/N), tumor/non-tumor ratio (glioblastoma [5]): 73.4 | cell uptake (HT29 cells): 0.76±0.03% | T(max/N), tumor/non-tumor ratio (glioblastoma [6]; 0.5 h): 8.36 | T(mean/N), tumor/non-tumor ratio (glioblastoma [6]; 0.5 h): 4.13 | Tumor-SUVmax (glioblastoma [6]; 0.5 h): 1.84 | Tumor-SUVmean (glioblastoma [6]; 0.5 h): 0.91 | T(max/N), tumor/non-tumor ratio (glioblastoma [6]; 1 h): 9.78 | T(mean/N), tumor/non-tumor ratio (glioblastoma [6]; 1 h): 4.96 | Tumor-SUVmax (glioblastoma [6]; 1 h): 2.74 | Tumor-SUVmean (glioblastoma [6]; 1 h): 1.39 | T(max/N), tumor/non-tumor ratio (glioblastoma [6]; 8 h): 25.35 | T(mean/N), tumor/non-tumor ratio (glioblastoma [6]; 8 h): 13.05 | Tumor-SUVmax (glioblastoma [6]; 8 h): 5.07 | Tumor-SUVmean (glioblastoma [6]; 8 h): 2.61 | T(max/N), tumor/non-tumor ratio (glioblastoma [6]; 12 h): 32.89 | T(mean/N), tumor/non-tumor ratio (glioblastoma [6]; 12 h): 17.21 | Tumor-SUVmax (glioblastoma [6]; 12 h): 6.25 | Tumor-SUVmean (glioblastoma [6]; 12 h): 3.27 | T(max/N), tumor/non-tumor ratio (glioblastoma [6]; 20 h): 63.33 | T(mean/N), tumor/non-tumor ratio (glioblastoma [6]; 20 h): 34.5 | Tumor-SUVmax (glioblastoma [6]; 20 h): 3.8 | Tumor-SUVmean (glioblastoma [6]; 20 h): 2.07 | T(max/N), tumor/non-tumor ratio (glioblastoma [6]; 20.5 h): 66.16 | T(mean/N), tumor/non-tumor ratio (glioblastoma [6]; 20.5 h): 34.5 | Tumor-SUVmax (glioblastoma [6]; 20.5 h): 3.97 | Tumor-SUVmean (glioblastoma [6]; 20.5 h): 2.07 | T(mean/N), tumor/non-tumor ratio (glioblastoma [6]; 24 h): 40.2 | Tumor-SUVmax (glioblastoma [6]; 24 h): 3.67 | Tumor-SUVmean (glioblastoma [6]; 24 h): 2.01 | accumulation in normal organs [7]: no undesired accumulation in normal organs | Estimated absorbed dose, Adrenals, Mean ([7]; iv): 0.0319 mSv/MBq | Estimated absorbed dose, Brain, Mean ([7]; iv): 0.0077 mSv/MBq | Estimated absorbed dose, Breasts, Mean ([7]; iv): 0.0241 mSv/MBq | Estimated absorbed dose, Gallbladder Wall, Mean ([7]; iv): 0.0346 mSv/MBq | Estimated absorbed dose, Heart Wall, Mean ([7]; iv): 0.0298 mSv/MBq | Estimated absorbed dose, Liver, Mean ([7]; iv): 0.1012 mSv/MBq | Estimated absorbed dose, Lower Large Intestine Wall, Mean ([7]; iv): 0.0291 mSv/MBq | Estimated absorbed dose, Lungs, Mean ([7]; iv): 0.0200 mSv/MBq | Estimated absorbed dose, Muscle, Mean ([7]; iv): 0.0127 mSv/MBq | Estimated absorbed dose, Osteogenic Cells, Mean ([7]; iv): 0.0528 mSv/MBq | Estimated absorbed dose, Ovaries, Mean ([7]; iv): 0.0294 mSv/MBq | Estimated absorbed dose, Pancreas, Mean ([7]; iv): 0.0647 mSv/MBq | Estimated absorbed dose, Red Marrow, Mean ([7]; iv): 0.0230 mSv/MBq | Estimated absorbed dose, Skin, Mean ([7]; iv): 0.0219 mSv/MBq | Estimated absorbed dose, Small Intestine, Mean ([7]; iv): 0.0545 mSv/MBq | Estimated absorbed dose, Spleen, Mean ([7]; iv): 0.1293 mSv/MBq | Estimated absorbed dose, Stomach Wall, Mean ([7]; iv): 0.0301 mSv/MBq | Estimated absorbed dose, Testes, Mean ([7]; iv): 0.0229 mSv/MBq | Estimated absorbed dose, Thymus, Mean ([7]; iv): 0.0261 mSv/MBq | Estimated absorbed dose, Thyroid, Mean ([7]; iv): 0.0248 mSv/MBq | Estimated absorbed dose, Total Body, Mean ([7]; iv): 0.0299 mSv/MBq | Estimated absorbed dose, Upper Large Intestine Wall, Mean ([7]; iv): 0.0317 mSv/MBq | Estimated absorbed dose, Urinary Bladder Wall, Mean ([7]; iv): 0.0268 mSv/MBq | Estimated absorbed dose, Uterus, Mean ([7]; iv): 0.0334 mSv/MBq | effective dose ([8]; healthy volunteers): 0.1166 Rem/mCi | Effective Dose Equivalent, Mean [8, 10]: 0.0454 mSv/MBq | Effective Dose, Mean [8, 10]: 0.0315 mSv/MBq | Estimated absorbed dose, Kidneys, Mean [8, 10]: 0.0994 mSv/MBq | exposure ([8]; subject injected with 8 mCi): 0.933 Rem | cell uptake (U87MG cells; U87MG cells, 4 h): 1.86±0.22 % of total input | cell uptake, effect of albumin in the medium (U87MG cells; all time points): significantly higher in the absence of albumin in the medium | internalization (U87MG cells; time points later than 5 min): most of ^64Cu-NMEB-RGD uptake was internalized | stability in the blood in vivo [9]: stable up to 4 h in the blood | radioactivity extraction bound to the blood proteins fraction ([9]; in vivo): Over 90%
